Laboratory results from PMC8930418.

Biological target: dSpCas9 (catalytically inert dCas9) (UniProt Q99ZW2)
Assay: MST

Sequence of UniProt Q99ZW2 (Q99ZW2 whole entry): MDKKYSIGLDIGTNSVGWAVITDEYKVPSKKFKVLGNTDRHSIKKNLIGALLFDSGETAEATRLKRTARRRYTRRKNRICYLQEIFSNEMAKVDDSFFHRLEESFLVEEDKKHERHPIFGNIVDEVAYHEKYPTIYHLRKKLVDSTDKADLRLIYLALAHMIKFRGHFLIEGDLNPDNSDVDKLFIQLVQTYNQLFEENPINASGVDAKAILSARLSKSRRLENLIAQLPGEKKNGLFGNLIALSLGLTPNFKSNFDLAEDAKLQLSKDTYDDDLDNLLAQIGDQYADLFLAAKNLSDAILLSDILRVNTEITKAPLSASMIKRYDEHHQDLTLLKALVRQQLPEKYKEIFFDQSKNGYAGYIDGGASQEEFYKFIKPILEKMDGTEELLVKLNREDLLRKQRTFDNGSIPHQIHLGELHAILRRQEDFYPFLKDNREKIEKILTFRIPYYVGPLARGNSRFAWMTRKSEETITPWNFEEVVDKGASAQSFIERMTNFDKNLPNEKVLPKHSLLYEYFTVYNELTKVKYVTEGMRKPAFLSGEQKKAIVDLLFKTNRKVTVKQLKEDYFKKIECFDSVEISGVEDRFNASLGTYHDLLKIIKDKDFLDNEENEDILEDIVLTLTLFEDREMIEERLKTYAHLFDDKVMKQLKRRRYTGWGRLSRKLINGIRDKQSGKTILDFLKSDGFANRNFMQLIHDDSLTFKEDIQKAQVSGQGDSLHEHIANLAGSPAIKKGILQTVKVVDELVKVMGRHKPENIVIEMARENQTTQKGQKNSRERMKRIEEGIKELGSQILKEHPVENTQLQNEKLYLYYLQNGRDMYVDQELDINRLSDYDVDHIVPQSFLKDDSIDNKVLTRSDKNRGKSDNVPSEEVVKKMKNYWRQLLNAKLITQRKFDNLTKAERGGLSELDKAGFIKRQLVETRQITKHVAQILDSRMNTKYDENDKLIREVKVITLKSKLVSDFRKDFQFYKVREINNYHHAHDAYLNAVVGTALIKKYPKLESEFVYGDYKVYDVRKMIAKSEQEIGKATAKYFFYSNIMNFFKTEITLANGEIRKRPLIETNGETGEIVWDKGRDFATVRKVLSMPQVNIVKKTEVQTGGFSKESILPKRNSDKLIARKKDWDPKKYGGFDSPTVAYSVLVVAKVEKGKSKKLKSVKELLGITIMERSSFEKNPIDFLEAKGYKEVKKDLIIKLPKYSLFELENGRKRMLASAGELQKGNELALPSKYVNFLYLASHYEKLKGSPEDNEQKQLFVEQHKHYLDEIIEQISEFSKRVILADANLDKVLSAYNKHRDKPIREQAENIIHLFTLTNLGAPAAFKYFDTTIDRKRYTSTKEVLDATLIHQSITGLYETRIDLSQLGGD

Row | Sequence | Kd
1 | GGCCCAGACTGAGCACGTGAGTTTTAGAGCTAGAAATAGCAAGTTAAAATAAGGCTAGTCCGTTATCAACTTGAAAAAGTGGCACCGAGTCGGTGCTGGAGGAAGCAGGGCTTCCTTTCCTCTGCCATCACTTATCGTCGTCATCCTTGTAATCCGTGCTCAGTCTGTCTCTCTCTTGACGCGGTTCTATCTAGTTACGCGTTAAACCAACTAGAAATTTTTT [evopreQ1 epegRNA (guide) + HEK3 dsDNA target] | 10 nM
2 | GGCCCAGACTGAGCACGTGAGTTTTAGAGCTAGAAATAGCAAGTTAAAATAAGGCTAGTCCGTTATCAACTTGAAAAAGTGGCACCGAGTCGGTGCTGGAGGAAGCAGGGCTTCCTTTCCTCTGCCATCACTTATCGTCGTCATCCTTGTAATCCGTGCTCAGTCTGTTTTTT [unmodified pegRNA (guide) + HEK3 dsDNA target] | 8.1 nM
